Assay in all cases: other fluorescence titration
Settings in all cases: both partners purified

The target of assay [1] is T1, sense peptide S2 (YIYRNYPDF), ammodytoxin A segment from position 115 to 124 (Vipera ammodytes).
T1 peptide: YIYRNYPDF

In assay [2] the target is T1, sense peptide S2 (YIYRNYPDF), ….
Assay [3] deals with T2, sense peptide S1 ([…]), ammodytoxin A segment from position 6 to 11 (Vipera ammodytes).
T2 construct: source: synthetic peptide, bought: GenScript Biotech B.V

B1: antisense peptide S2A2 (VNISVIGIK) (designed binder)
peptide: VNISVIGIK
By stoichiometry N is commonly meant a count of units in the complex or per binding partner. Usually Kd stands for the free concentration of one partner at which half of the binding sites on the other are occupied at equilibrium, for simple one-to-one binding. A higher Kd goes with a looser complex. As for B1, the “stoichiometry N” value in assay [1] turned out to be 1. Moreover, the dissociation constant Kd in assay [2] is 8.9 µM.

B2: antisense peptide S2A1 (INISIVGVK) (designed binder)
peptide: INISIVGVK
Take B2: the “stoichiometry N” value in assay [1] stood at 1. In assay [2], binding was characterised by a dissociation constant (Kd) of 1.1 µM.

B3: antisense peptide S1A2 (SHHYSP) (designed binder)
peptide: SHHYSP
As for B3, in assay [3], the Kd worked out at 1.4 µM.

B4: antisense peptide S1A1 (SHHYEP) (designed binder)
peptide: SHHYEP
notes: source: synthetic peptide, bought: GenScript Biotech B.V
The molecule B4 came in with a Kd in assay [3] of 4.9 µM.

The record behind these values is PMC11858715 (Molecules, 2025).
